Experimental data reported in patent US20140348785A1.
Numbering of substitutions follows the chain as printed. Names and notes keep the numbering of the source.

B1: 10E8 Fab (antigen binding fragment of 10E8) (Fab, V domains shown)
VH: EVQLVESGGGLVKPGGSLRLSCSASGFDFDNAWMTWVRQPPGKGLEWVGRITGPGEGWSVDYAAPVEGRFTISRLNSINFLYLEMNNLRMEDSGLYFCARTGKYYDFWSGYPPGEEYFQDWGRGTLVTVSS
VL: SYELTQETGVSVALGRTVTITCRGDSLRSHYASWYQKKPGQAPILLFYGKNNRPSGVPDRFSGSASGNRASLTISGAQAEDDAEYYCSSRDKSGSRLSVFGGGTKLTVL
B2: 10E8 IgG alanine variant E53A (heavy chain, Kabat) (antibody, V domains shown)
VH: B1 VH with E56A
VL: B1 VL

Assays:
[1] = molecular target: biotinylated gp41 MPER peptide RRR-(656-683)-RRK-biotin (HIV-1); assay: SPR: biotinylated MPER peptide on an SA chip, Fab as analyte, 1:1 Langmuir fit
[2] = molecular target: soluble gp41 MPER peptide RRR-(656-683)-RRR (HIV-1); assay: SPR: variant IgG captured on an anti-human IgG chip, MPER peptide as analyte

Row | Binder | Kd [1] [nM] | fold decrease in affinity relative to wild type 10E8 [2] [fold]
1 | B1 | 17 | 
2 | B2 |  | 60
